The test system of the first test is CD8+ T cells. Put plainly: In vitro immunogenicity: T-cell priming with aAPCs loaded with peptide/MHC complexes and anti-CD28 antibody, pMHC multimer readout. To be noted: in vitro immunogenicity of HLA class I peptides; peptide-specific multimer+ wells after aAPC priming of CD8+ T cells. It is filed as cell-based, human. The method, then:
In an aspect, the peptides are pre-screened for immunogenicity before being included in the warehouse. By way of example, and not limitation, the immunogenicity of the peptides included in the warehouse is determined by a method comprising in vitro T-cell priming through repeated stimulations of CD8+ T cells from healthy donors with artificial antigen presenting cells loaded with peptide/MHC complexes and anti-CD28 antibody.
In order to obtain information regarding the immunogenicity of the TUMAPs of the present invention, the inventors performed investigations using an in vitro T-cell priming assay based on repeated stimulations of CD8+ T cells with artificial antigen presenting cells (aAPCs) loaded with peptide/MHC complexes and anti-CD28 antibody.
In order to perform in vitro stimulations by artificial antigen presenting cells loaded with peptide-MHC complex (pMHC) and anti-CD28 antibody, the inventors first isolated CD8+ T cells from fresh HLA-A*02 leukapheresis products via positive selection using CD8 microbeads (Miltenyi Biotec, Bergisch-Gladbach, Germany) of healthy donors obtained from the University clinics Mannheim, Germany, after informed consent.
PBMCs and isolated CD8+ lymphocytes were incubated in T-cell medium (TCM) until use consisting of RPMI-Glutamax (Invitrogen, Karlsruhe, Germany) supplemented with 10% heat inactivated human AB serum (PAN-Biotech, Aidenbach, Germany), 100 U/ml Penicillin/100 μg/ml Streptomycin (Cambrex, Cologne, Germany), 1 mM sodium pyruvate (CC Pro, Oberdorla, Germany), 20 μg/ml Gentamycin (Cambrex). 2.5 ng/ml IL7 (PromoCell, Heidelberg, Germany) and 10 U/ml IL-2 (Novartis Pharma, Nurnberg, Germany) were also added to the TCM at this step.
Generation of pMHC/anti-CD28 coated beads, T-cell stimulations and readout was performed in a highly defined in vitro system using four different pMHC molecules per stimulation condition and 8 different pMHC molecules per readout condition.
The purified co-stimulatory mouse IgG2a anti human CD28 Ab 9.3 (Jung et al., 1987) was chemically biotinylated using Sulfo-N-hydroxysuccinimidobiotin as recommended by the manufacturer (Perbio, Bonn, Germany). Beads used were 5.6 μm diameter streptavidin coated polystyrene particles (Bangs Laboratories, Illinois, USA).
pMHC used for positive and negative control stimulations were A*0201/MLA-001 (peptide […] (SEQ ID NO. 303) from modified Melan-A/MART-1) and A*0201/DDX5-001 ([…] from DDX5, SEQ ID NO. 304), respectively.
800.000 beads/200 μl were coated in 96-well plates in the presence of 4×12.5 ng different biotin-pMHC, washed and 600 ng biotin anti-CD28 were added subsequently in a volume of 200 μl. Stimulations were initiated in 96-well plates by co-incubating […] CD8+ T cells with 2×10^5 washed coated beads in 200 μl TCM supplemented with 5 ng/ml IL-12 (PromoCell) for 3 days at 37° C. Half of the medium was then exchanged by fresh TCM supplemented with 80 U/ml IL-2 and incubating was continued for 4 days at 37° C. This stimulation cycle was performed for a total of three times. For the pMHC multimer readout using 8 different pMHC molecules per condition, a twodimensional combinatorial coding approach was used as previously described (Andersen et al., 2012) with minor modifications encompassing coupling to 5 different fluorochromes. Finally, multimeric analyses were performed by staining the cells with Live/dead near IR dye (Invitrogen, Karlsruhe, Germany), CD8-FITC antibody clone SK1 (BD, Heidelberg, Germany) and fluorescent pMHC multimers. For analysis, a BD LSRII SORP cytometer equipped with appropriate lasers and filters was used. Peptide specific cells were calculated as percentage of total CD8+ cells. Evaluation of multimeric analysis was done using the FlowJo software (Tree Star, Oregon, USA). In vitro priming of specific multimer+ CD8+ lymphocytes was detected by comparing to negative control stimulations.
As for “4 (KLMPGTYTL; listed as Homo sapiens) [compound 4]”, the “Wells positive [%]” value is given as “+ (<20% = +)”.

In the case of “249 (GLCERLVSL; listed as Homo sapiens) [compound 249]”, the “Wells positive [%]” value is “+ (<20% = +)”.

In the case of “12 (GLLPLLHRA; listed as Homo sapiens) [compound 12]”, the “Wells positive [%]” value is reported as “++++ (>=70% = ++++)”.

The target of another test is HLA-A*02 (Homo sapiens, UniProt P04439, D140Y/D185E/D98H/E176V/E277Q/G131W/G231S/I119V/I121R/I166T/I218V/N151K/N90K/P208A/P217A/Q86G/Q94H/R138H/R169H). Put plainly: MHC binding assay (UV-ligand exchange, beta2m ELISA), HLA-A*02. To be noted: MHC class I binding score, peptide exchange yield. The source says: Candidate peptides for T cell based therapies according to the present invention were further tested for their MHC binding capacity (affinity). The individual peptide-MHC complexes were produced by UV-ligand exchange, where a UV-sensitive peptide is cleaved upon UV-irradiation, and exchanged with the peptide of interest as analyzed. Only peptide candidates that can effectively bind and stabilize the peptide-receptive MHC molecules prevent dissociation of the MHC complexes. To determine the yield of the exchange reaction, an ELISA was performed based on the detection of the light chain ([…] of stabilized MHC complexes. The assay was performed as generally described in Rodenko et al. (Rodenko et al., 2006).
96 well MAXISorp plates (NUNC) were coated over night with 2 ug/ml streptavidin in PBS at room temperature, washed 4× and blocked for 1 h at 37° C. in 2% BSA containing blocking buffer. Refolded HLA-A*02:01/MLA-001 monomers served as standards, covering the range of 15-500 ng/ml. Peptide-MHC monomers of the UV-exchange reaction were diluted 100 fold in blocking buffer. Samples were incubated for 1 h at 37° C., washed four times, incubated with 2 ug/ml HRP conjugated anti-β2m for 1 h at 37° C., washed again and detected with TMB solution that is stopped with […]. Absorption was measured at 450 nm. Candidate peptides that show a high exchange yield (preferably higher than 50%, most preferred higher than 75%) are generally preferred for a generation and production of antibodies or fragments thereof, and/or T cell receptors or fragments thereof, as they show sufficient avidity to the MHC molecules and prevent dissociation of the MHC complexes.
For the substance “245 (SLLDLPLSL; listed as Homo sapiens) [compound 245]”, the Peptide exchange entry is listed as “++++ (>=75% = ++++)”.

With “248 (YLDRFLAGV; listed as Homo sapiens) [compound 248]”, the Peptide exchange entry was “++++ (>=75% = ++++)”.

Take “100 (ALLGMIIVGV; listed as Homo sapiens) [compound 100]”: the Peptide exchange result is listed as “+ (<20% = +)”.

Turning to “147 (YLMDDTVEI; listed as Homo sapiens) [compound 147]”, the Peptide exchange result was “++++ (>=75% = ++++)”.

In the case of “84 (ALCPRIHEV; listed as Homo sapiens) [compound 84]”, the Peptide exchange entry is on record as “++++ (>=75% = ++++)”.

As for “92 (GLLFSLRSV; listed as Homo sapiens) [compound 92]”, the Peptide exchange result is reported as “++++ (>=75% = ++++)”.

Turning to “3 (KLEENGDLYL; listed as Homo sapiens) [compound 3]”, the Peptide exchange result is reported as “++++ (>=75% = ++++)”.

For the substance “42 (LLDSVSRL; listed as Homo sapiens) [compound 42]”, the Peptide exchange entry was “+ (<20% = +)”.

Regarding “4 (KLMPGTYTL; listed as Homo sapiens) [compound 4]”, the Peptide exchange result is recorded as “++++ (>=75% = ++++)”.

Take “120 (VTPVTVSAV; listed as Homo sapiens) [compound 120]”: the Peptide exchange result is “+ (<20% = +)”.

On to “95 (GLLGSLFFL; listed as Homo sapiens) [compound 95]”, for which the Peptide exchange result is given as “++++ (>=75% = ++++)”.

Regarding “249 (GLCERLVSL; listed as Homo sapiens) [compound 249]”, the Peptide exchange result was “++++ (>=75% = ++++)”.

Consider “153 (FISERVEVV; listed as Homo sapiens) [compound 153]”, for which the Peptide exchange result is “++++ (>=75% = ++++)”.

Regarding “12 (GLLPLLHRA; listed as Homo sapiens) [compound 12]”, the Peptide exchange entry was “++++ (>=75% = ++++)”.

“16 (YTLDIPVLFGV; listed as Homo sapiens) [compound 16]”: the Peptide exchange result is recorded as “++++ (>=75% = ++++)”.

Turning to “34 (FLLATEVVTV; listed as Homo sapiens) [compound 34]”, the Peptide exchange entry is reported as “++++ (>=75% = ++++)”.

Consider “51 (LLFSRLCGA; listed as Homo sapiens) [compound 51]”, for which the Peptide exchange result is on record as “++++ (>=75% = ++++)”.

In the case of “133 (ALLPRLHQL; listed as Homo sapiens) [compound 133]”, the Peptide exchange result is listed as “++++ (>=75% = ++++)”.

With “125 (SLADYEHFV; listed as Homo sapiens) [compound 125]”, the Peptide exchange entry is listed as “++++ (>=75% = ++++)”.

For the substance “14 (ILAKDLFEI; listed as Homo sapiens) [compound 14]”, the Peptide exchange result was “++++ (>=75% = ++++)”.

The values above are taken from US20170189507A1, “NOVEL PEPTIDES AND COMBINATION OF PEPTIDES FOR USE IN IMMUNOTHERAPY AGAINST VARIOUS CANCERS” (immatics biotechnologies GmbH, priority 2015, published 2017).
